Results as given in paper PMC4993541 (Cell Cycle, 2016).

Molecular target: FLAG-tagged full-length BRCA2 (human, UniProt P51587 1-3418)
Experiment: pull-down

Sequence of FLAG-tagged full-length BRCA2 (P51587 whole entry): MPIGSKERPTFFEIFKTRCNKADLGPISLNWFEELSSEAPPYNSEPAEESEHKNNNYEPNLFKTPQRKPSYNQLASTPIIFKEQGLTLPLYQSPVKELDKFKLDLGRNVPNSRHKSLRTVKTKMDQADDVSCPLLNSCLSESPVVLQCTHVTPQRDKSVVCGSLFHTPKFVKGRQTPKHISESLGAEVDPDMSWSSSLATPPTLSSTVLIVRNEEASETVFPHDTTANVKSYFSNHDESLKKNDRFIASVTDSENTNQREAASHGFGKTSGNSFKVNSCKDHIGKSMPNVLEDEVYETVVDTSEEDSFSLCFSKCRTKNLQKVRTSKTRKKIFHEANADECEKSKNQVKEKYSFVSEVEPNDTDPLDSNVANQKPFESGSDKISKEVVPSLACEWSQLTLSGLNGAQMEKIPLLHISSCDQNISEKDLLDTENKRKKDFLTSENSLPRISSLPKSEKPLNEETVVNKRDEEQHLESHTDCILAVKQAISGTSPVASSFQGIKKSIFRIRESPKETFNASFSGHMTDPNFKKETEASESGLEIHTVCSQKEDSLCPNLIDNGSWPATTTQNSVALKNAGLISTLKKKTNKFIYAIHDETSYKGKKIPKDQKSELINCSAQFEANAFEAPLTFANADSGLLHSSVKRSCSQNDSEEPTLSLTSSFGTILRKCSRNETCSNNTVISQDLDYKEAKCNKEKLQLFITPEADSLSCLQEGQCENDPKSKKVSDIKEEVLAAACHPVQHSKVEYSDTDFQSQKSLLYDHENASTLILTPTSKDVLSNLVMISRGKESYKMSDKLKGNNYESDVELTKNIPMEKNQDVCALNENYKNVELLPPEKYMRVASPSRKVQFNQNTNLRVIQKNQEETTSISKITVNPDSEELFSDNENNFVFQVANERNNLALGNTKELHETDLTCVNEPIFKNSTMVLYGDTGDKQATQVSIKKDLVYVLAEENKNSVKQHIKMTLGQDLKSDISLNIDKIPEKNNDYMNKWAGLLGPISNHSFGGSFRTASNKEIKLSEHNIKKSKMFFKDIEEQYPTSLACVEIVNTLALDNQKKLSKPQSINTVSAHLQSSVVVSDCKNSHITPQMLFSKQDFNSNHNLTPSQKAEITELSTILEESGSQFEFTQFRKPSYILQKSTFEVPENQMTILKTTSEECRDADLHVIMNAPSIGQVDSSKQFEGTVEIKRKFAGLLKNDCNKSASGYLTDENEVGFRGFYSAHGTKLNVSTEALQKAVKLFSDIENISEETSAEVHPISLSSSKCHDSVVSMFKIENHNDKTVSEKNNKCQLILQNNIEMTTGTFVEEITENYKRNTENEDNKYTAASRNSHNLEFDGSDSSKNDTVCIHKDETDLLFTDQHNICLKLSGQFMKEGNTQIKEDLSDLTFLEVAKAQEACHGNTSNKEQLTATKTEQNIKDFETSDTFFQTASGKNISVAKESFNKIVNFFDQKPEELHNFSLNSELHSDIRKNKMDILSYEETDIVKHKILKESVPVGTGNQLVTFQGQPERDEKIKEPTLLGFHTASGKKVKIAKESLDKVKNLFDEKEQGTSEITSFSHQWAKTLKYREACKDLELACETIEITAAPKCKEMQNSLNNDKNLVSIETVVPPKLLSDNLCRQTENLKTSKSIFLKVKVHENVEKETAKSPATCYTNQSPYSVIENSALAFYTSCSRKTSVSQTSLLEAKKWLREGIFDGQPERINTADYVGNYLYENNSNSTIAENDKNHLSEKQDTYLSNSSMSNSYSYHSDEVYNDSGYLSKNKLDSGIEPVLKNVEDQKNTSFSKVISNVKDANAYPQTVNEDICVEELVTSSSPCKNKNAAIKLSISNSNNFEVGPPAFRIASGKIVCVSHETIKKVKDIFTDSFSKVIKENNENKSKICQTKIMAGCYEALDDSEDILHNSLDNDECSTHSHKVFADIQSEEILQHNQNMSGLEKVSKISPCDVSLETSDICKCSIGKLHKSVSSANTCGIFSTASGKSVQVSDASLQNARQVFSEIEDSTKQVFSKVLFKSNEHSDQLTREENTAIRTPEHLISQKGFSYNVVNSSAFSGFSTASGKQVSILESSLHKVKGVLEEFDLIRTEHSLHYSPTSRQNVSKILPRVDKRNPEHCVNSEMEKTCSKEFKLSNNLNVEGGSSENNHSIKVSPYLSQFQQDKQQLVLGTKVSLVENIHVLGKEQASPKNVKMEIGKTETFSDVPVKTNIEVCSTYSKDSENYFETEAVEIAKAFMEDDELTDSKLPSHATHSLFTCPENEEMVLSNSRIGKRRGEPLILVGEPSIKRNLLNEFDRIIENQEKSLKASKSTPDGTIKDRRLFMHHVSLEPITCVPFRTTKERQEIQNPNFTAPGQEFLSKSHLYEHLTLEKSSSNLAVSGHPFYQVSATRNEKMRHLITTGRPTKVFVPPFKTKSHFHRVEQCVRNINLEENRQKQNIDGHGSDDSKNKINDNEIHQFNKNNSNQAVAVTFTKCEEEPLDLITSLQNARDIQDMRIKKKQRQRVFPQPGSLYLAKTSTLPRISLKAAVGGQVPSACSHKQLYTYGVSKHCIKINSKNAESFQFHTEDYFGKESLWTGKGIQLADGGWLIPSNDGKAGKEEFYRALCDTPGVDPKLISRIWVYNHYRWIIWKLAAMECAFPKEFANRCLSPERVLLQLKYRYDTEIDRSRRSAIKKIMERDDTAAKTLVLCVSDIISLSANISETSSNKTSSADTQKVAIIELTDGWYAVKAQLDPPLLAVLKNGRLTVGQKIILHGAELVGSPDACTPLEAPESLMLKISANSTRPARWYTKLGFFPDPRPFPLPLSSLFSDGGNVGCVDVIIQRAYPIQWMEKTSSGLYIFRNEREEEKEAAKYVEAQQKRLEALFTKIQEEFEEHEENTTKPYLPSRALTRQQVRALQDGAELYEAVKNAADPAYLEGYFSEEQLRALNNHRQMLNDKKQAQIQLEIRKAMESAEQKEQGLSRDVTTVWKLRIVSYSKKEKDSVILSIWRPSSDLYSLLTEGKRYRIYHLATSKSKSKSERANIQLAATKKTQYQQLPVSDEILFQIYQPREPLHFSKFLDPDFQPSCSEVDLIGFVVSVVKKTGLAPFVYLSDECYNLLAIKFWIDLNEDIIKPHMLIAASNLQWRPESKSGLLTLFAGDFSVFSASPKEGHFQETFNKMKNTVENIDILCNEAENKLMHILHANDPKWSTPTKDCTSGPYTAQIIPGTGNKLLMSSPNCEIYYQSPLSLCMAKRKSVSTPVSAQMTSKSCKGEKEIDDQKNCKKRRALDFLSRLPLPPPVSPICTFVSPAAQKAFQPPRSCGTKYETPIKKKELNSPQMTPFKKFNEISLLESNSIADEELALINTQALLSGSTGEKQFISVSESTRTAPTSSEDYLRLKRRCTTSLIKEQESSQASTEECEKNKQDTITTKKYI

- binding result: binds
B1: His-tagged full-length LIC2 (natural protein, human, UniProt O43237 1-492, looked up)
chain: MAPVGVEKKLLLGPNGPAVAAAGDLTSEEEEGQSLWSSILSEVSTRARSKLPSGKNILVFGEDGSGKTTLMTKLQGAEHGKKGRGLEYLYLSVHDEDRDDHTRCNVWILDGDLYHKGLLKFAVSAESLPETLVIFVADMSRPWTVMESLQKWASVLREHIDKMKIPPEKMRELERKFVKDFQDYMEPEEGCQGSPQRRGPLTSGSDEENVALPLGDNVLTHNLGIPVLVVCTKCDAVSVLEKEHDYRDEHLDFIQSHLRRFCLQYGAALIYTSVKEEKNLDLLYKYIVHKTYGFHFTTPALVVEKDAVFIPAGWDNEKKIAILHENFTTVKPEDAYEDFIVKPPVRKLVHDKELAAEDEQVFLMKQQSLLAKQPATPTRASESPARGPSGSPRTQGRGGPASVPSSSPGTSVKKPDPNIKNNAASEGVLASFFNSLLSKKTGSPGSPGAGGVQSTAKKSGQKTVLSNVQEELDRMTRKPDSMVTNSSTENEA
